B1: Tumor necrosis factor receptor superfamily member 6 (Homo sapiens), P25445 (parent)
chain: MLGIWTLLPLVLTSVARLSSKSVNAQVTDINSKGLELRKTVTTVETQNLEGLHHDGQFCHKPCPPGERKARDCTVNGDEPDCVPCQEGKEYTDKAHFSSKCRRCRLCDEGHGLEVEINCTRTQNTKCRCKPNFFCNSTVCEHCDPCTKCEHGIIKECTLTSNTKCKEEGSRSNLGWLCLLLLPIPLIVWVKRKEVQKTCRKHRKENQGSHESPTLNPETVAINLSDVDLSKYITTIAGVMTLSQVKGFVRKNGVNEAKIDEIKNDNVQDTAEQKVQLLRNWHQLHGKKEAYDTLIKDLKKANLCTLAEKIQTIILKDITSDSENSNFRNEIQSLV

Variants of: B1
Conditions: with ptn13_human PTPN13, Q12923
ptn13_human PTPN13, Q12923, sequence (Q12923 whole entry): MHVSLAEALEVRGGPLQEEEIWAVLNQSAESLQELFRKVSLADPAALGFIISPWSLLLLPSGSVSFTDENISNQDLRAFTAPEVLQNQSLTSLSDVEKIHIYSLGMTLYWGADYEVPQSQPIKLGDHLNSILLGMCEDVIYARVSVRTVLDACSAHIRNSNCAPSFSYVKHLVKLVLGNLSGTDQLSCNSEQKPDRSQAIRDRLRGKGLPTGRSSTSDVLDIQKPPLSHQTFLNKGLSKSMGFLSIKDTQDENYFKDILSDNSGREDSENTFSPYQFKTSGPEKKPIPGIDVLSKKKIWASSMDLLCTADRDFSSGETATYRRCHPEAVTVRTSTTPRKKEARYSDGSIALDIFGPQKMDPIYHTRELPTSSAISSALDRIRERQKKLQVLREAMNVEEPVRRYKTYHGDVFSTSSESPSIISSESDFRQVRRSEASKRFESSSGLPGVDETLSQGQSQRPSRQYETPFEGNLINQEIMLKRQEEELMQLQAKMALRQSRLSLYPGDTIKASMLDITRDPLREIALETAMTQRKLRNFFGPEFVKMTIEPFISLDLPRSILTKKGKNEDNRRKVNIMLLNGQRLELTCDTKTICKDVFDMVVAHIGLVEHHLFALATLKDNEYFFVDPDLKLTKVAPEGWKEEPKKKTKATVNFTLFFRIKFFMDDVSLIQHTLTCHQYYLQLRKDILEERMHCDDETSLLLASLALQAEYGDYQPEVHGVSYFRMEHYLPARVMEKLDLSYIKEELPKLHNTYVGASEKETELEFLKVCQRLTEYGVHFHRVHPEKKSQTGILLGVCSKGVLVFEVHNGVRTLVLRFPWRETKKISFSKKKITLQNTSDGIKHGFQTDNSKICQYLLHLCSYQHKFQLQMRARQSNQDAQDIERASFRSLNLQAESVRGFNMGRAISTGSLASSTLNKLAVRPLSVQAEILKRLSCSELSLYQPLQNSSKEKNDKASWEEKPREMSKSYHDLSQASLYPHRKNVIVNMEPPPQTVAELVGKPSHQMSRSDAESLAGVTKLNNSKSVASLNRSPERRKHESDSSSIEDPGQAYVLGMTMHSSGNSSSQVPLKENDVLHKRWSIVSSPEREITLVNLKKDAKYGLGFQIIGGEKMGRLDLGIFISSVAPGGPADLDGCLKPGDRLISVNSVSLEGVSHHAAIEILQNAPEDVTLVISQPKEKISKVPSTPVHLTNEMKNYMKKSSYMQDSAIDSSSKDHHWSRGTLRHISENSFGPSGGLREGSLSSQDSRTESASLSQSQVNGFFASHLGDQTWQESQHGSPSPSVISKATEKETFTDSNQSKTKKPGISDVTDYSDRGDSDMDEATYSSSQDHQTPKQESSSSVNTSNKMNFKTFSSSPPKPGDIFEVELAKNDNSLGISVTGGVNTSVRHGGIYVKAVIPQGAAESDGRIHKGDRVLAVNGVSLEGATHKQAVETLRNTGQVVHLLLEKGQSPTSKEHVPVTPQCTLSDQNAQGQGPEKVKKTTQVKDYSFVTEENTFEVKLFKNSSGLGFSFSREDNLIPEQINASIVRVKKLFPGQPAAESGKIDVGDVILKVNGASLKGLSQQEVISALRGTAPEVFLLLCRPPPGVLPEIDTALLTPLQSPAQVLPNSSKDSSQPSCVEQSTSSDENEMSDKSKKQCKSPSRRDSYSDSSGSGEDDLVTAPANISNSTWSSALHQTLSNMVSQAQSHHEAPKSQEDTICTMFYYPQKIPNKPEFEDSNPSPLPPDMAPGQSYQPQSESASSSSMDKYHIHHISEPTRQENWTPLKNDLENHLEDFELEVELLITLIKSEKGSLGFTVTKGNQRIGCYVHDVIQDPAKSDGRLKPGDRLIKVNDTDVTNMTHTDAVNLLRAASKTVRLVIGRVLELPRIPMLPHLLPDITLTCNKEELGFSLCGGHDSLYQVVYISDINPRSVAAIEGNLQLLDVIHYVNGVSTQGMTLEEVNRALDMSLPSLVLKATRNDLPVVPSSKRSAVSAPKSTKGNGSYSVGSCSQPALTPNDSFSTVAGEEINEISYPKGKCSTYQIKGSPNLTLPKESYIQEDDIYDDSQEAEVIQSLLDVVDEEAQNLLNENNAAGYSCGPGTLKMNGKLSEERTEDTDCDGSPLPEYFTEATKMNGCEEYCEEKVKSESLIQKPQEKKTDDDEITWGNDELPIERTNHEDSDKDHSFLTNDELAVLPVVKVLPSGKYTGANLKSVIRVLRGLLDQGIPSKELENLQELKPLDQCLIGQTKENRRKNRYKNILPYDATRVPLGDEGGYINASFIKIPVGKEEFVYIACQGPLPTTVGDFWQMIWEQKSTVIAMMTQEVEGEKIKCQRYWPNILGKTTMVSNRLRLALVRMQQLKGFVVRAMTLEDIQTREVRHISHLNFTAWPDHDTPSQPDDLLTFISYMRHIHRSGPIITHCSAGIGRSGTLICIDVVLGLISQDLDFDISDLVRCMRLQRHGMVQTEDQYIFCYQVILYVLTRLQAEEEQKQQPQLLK

Row | Variant | effect of a mutation on the interaction
1 | MLGIWTLLPLVLTSVARLSSKSVNAQVTDINSKGLELRKTVTTVETQNLEGLHHDGQFCHKPCPPGERKARDCTVNGDEPDCVPCQEGKEYTDKAHFSSKCRRCRLCDEGHGLEVEINCTRTQNTKCRCKPNFFCNSTVCEHCDPCTKCEHGIIKECTLTSNTKCKEEGSRSNLGWLCLLLLPIPLIVWVKRKEVQKTCRKHRKENQGSHESPTLNPETVAINLSDVDLSKYITTIAGVMTLSQVKGFVRKNGVNEAKIDEIKNDNVQDTAEQKVQLLRNWHQLHGKKEAYDTLIKDLKKANLCTLAEKIQTIILKDITSDSENSNFRNEIQPLV [S333P] | decreasing interaction
